{"source": "the RNAGym collection of RNA variant scans (doi:10.1073/pnas.2313332121)", "parents": {"B1": {"name": "TPR 5TU (parent)", "chain": "GGAUCUUCUCGAUCUAACAAAAAAGACAAAUCUGCCACAAAGCUUGAGAGCAUCUUCGGAUGCAGAGGCGGCAGCCUUCGGUGGCGCGAUAGCGCCAACGUUCUCAACUAUGACACGCAAAACGCGUGCUCCGUUGAAUGGAGUUUAUCAUG"}}, "note": "Variants at the floor of the assay were thinned out.", "data": [{"variants_of": "B1", "experiment": "polymerase ribozyme fitness, log enrichment relative to wild type (log ratio); higher = more active; in vitro selection for triplet polymerase activity", "how_it_was_run": "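Each subunit of a heterodimeric triplet polymerase ribozyme was mutagenized into a library by PCR, transcribed, and subjected to one round of in vitro selection, run in triplicate. Libraries were annealed with a biotinylated primer, the partner subunit and triplets, incubated frozen at −7 °C, and extended constructs were gel-excised, captured on streptavidin beads and recovered by RT-PCR. Input and output libraries were sequenced on Illumina, keeping genotypes with ≥10 input reads and ≥1 read per output. Fitness is log base 2 of genotype enrichment divided by wild-type enrichment, from inverse-variance-weighted replicate averages.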", "values": [{"variant": "G59A G133U G140C", "polymerase ribozyme fitness (log ratio)": -3.69}, {"variant": "G42A U61A G86A", "polymerase ribozyme fitness (log ratio)": "≤ -4.2"}, {"variant": "A41U G42C C76G", "polymerase ribozyme fitness (log ratio)": "≤ -4.2"}, {"variant": "A17U C38U C95U A115C A142U", "polymerase ribozyme fitness (log ratio)": -3.52}, {"variant": "A20U C85A G94C A121C", "polymerase ribozyme fitness (log ratio)": -0.745}, {"variant": "C57U G58A A60U C69U C76A G88U G141A", "polymerase ribozyme fitness (log ratio)": "≤ -4.2"}, {"variant": "A24U G25C A37U G65C U90A C116G C131A G141C", "polymerase ribozyme fitness (log ratio)": "≤ -4.2"}, {"variant": "A16U C57A G58U C75G C87A C99U A142C U144C", "polymerase ribozyme fitness (log ratio)": "≤ -4.2"}, {"variant": "G46C C54A C96G C103G G141U", "polymerase ribozyme fitness (log ratio)": "≤ -4.2"}, {"variant": "C27G U56A C99A", "polymerase ribozyme fitness (log ratio)": "≤ -4.2"}, {"variant": "U33G C76U A97U A119C", "polymerase ribozyme fitness (log ratio)": "≤ -4.2"}, {"variant": "A73G C85A U109G", "polymerase ribozyme fitness (log ratio)": -2.78}, {"variant": "U4A U33C G59A U90G C95A U111G C125A", "polymerase ribozyme fitness (log ratio)": "≤ -4.2"}, {"variant": "A21U A24G U61A G81U", "polymerase ribozyme fitness (log ratio)": "≤ -4.2"}, {"variant": "C14G A19C A22C U61A A91U C105G C108G C114U A120G", "polymerase ribozyme fitness (log ratio)": "≤ -4.2"}, {"variant": "A12C U53A U56A", "polymerase ribozyme fitness (log ratio)": -2.64}, {"variant": "C5G A52C C85U", "polymerase ribozyme fitness (log ratio)": -2.14}, {"variant": "G84A A98U", "polymerase ribozyme fitness (log ratio)": -0.469}, {"variant": "U13G A16U G42C G84A", "polymerase ribozyme fitness (log ratio)": "≤ -4.2"}, {"variant": "C14U U33G G59C C87U G124U G141C G152U", "polymerase ribozyme fitness (log ratio)": -4.16}, {"variant": "C85A G117U", "polymerase ribozyme fitness (log ratio)": -0.587}, {"variant": "A39C G48C G59U A60U A66G G71A C96U U101G U151A", "polymerase ribozyme fitness (log ratio)": "≤ -4.2"}, {"variant": "A24G C27G A30U G48C G92U", "polymerase ribozyme fitness (log ratio)": "≤ -4.2"}, {"variant": "U13A A24U C96G", "polymerase ribozyme fitness (log ratio)": -1.33}, {"variant": "C54G G58A U78G C108A G126U", "polymerase ribozyme fitness (log ratio)": "≤ -4.2"}, {"variant": "A17U A37C U61A C93A C99A C125A U144A", "polymerase ribozyme fitness (log ratio)": "≤ -4.2"}, {"variant": "A30C U31A C75A C79A U144A", "polymerase ribozyme fitness (log ratio)": "≤ -4.2"}, {"variant": "G58U U148A", "polymerase ribozyme fitness (log ratio)": -3.05}, {"variant": "A64C C93U U102G", "polymerase ribozyme fitness (log ratio)": "≤ -4.2"}, {"variant": "C14G A16C C51U G94U C125U", "polymerase ribozyme fitness (log ratio)": -3.93}, {"variant": "A3U C93U G141A U146G", "polymerase ribozyme fitness (log ratio)": -2.5}, {"variant": "G65U", "polymerase ribozyme fitness (log ratio)": -3.1}, {"variant": "U45A C87U C132G U139C G143A U145G", "polymerase ribozyme fitness (log ratio)": "≤ -4.2"}, {"variant": "U9A A28U A66G C79G C93U", "polymerase ribozyme fitness (log ratio)": "≤ -4.2"}, {"variant": "A37U C85G G86A G92C A115G", "polymerase ribozyme fitness (log ratio)": -3.98}, {"variant": "A119G G143A", "polymerase ribozyme fitness (log ratio)": 1.13}, {"variant": "A22C A24U C54A U77A G84U", "polymerase ribozyme fitness (log ratio)": "≤ -4.2"}, {"variant": "C8G A41C C93G C103A A120U A142U", "polymerase ribozyme fitness (log ratio)": "≤ -4.2"}, {"variant": "A30U A89U C93U A120G C125G G141A G143A A147C", "polymerase ribozyme fitness (log ratio)": "≤ -4.2"}, {"variant": "U55G G94A A98U", "polymerase ribozyme fitness (log ratio)": -0.256}, {"variant": "A30U G100U", "polymerase ribozyme fitness (log ratio)": "≤ -4.2"}, {"variant": "A37C G84U", "polymerase ribozyme fitness (log ratio)": -2.07}, {"variant": "A28C G124C", "polymerase ribozyme fitness (log ratio)": "≤ -4.2"}, {"variant": "C87A C95U A107U", "polymerase ribozyme fitness (log ratio)": "≤ -4.2"}, {"variant": "C14U U45G C87A C95U C103A", "polymerase ribozyme fitness (log ratio)": -4.17}, {"variant": "A17C G83C", "polymerase ribozyme fitness (log ratio)": -0.317}, {"variant": "G81C A137U U139G U144A", "polymerase ribozyme fitness (log ratio)": -3.35}, {"variant": "C35U A41G G68A C96G A98C C108G G126U U135C", "polymerase ribozyme fitness (log ratio)": "≤ -4.2"}, {"variant": "C10A A40C U56A C108U G143C", "polymerase ribozyme fitness (log ratio)": "≤ -4.2"}, {"variant": "A12U A20C C36G A138C", "polymerase ribozyme fitness (log ratio)": -4.13}, {"variant": "C36A C57A C79A G83U C93G C114U", "polymerase ribozyme fitness (log ratio)": "≤ -4.2"}, {"variant": "C54A C85U C125G", "polymerase ribozyme fitness (log ratio)": -1.96}, {"variant": "C99U G140U", "polymerase ribozyme fitness (log ratio)": -3.37}, {"variant": "C38G C87U C125U G141A", "polymerase ribozyme fitness (log ratio)": -3.12}, {"variant": "A66C A73C G140U A147C", "polymerase ribozyme fitness (log ratio)": "≤ -4.2"}, {"variant": "A24U C79A", "polymerase ribozyme fitness (log ratio)": -4.12}, {"variant": "C116U A142C", "polymerase ribozyme fitness (log ratio)": -1.1}, {"variant": "C76U G83A", "polymerase ribozyme fitness (log ratio)": -0.0654}, {"variant": "A39C G48U G68C G80C C96U U101G A106U", "polymerase ribozyme fitness (log ratio)": "≤ -4.2"}, {"variant": "C75A C79G C93A", "polymerase ribozyme fitness (log ratio)": -4.11}, {"variant": "A28U U44A U55A U77G A120U", "polymerase ribozyme fitness (log ratio)": "≤ -4.2"}, {"variant": "A40G A41G C63U C76A G83C G152U", "polymerase ribozyme fitness (log ratio)": "≤ -4.2"}, {"variant": "C5U A19G U135C G141U", "polymerase ribozyme fitness (log ratio)": -3.73}, {"variant": "C8A A23C A26C U33C U78G A98G U144G", "polymerase ribozyme fitness (log ratio)": "≤ -4.2"}, {"variant": "A41G G84U C116U G136U", "polymerase ribozyme fitness (log ratio)": -3.6}, {"variant": "G81C C85A A142G", "polymerase ribozyme fitness (log ratio)": -1.69}, {"variant": "A41C A52C C114U", "polymerase ribozyme fitness (log ratio)": -3.97}, {"variant": "A47G C85A C93A A98C A121U", "polymerase ribozyme fitness (log ratio)": -4.11}, {"variant": "A20G A24U C87U A107G", "polymerase ribozyme fitness (log ratio)": "≤ -4.2"}, {"variant": "A47U A60U C95U G136A", "polymerase ribozyme fitness (log ratio)": -1.58}, {"variant": "A37C A41C U53A U56G G59A C79U C87A A113U U134A", "polymerase ribozyme fitness (log ratio)": "≤ -4.2"}, {"variant": "C5U C14U A26U C118G A121U", "polymerase ribozyme fitness (log ratio)": -3.94}, {"variant": "A26U U146G", "polymerase ribozyme fitness (log ratio)": -1.92}, {"variant": "A73G C93G", "polymerase ribozyme fitness (log ratio)": -2.73}, {"variant": "A29C C43G U53A G62U A147C", "polymerase ribozyme fitness (log ratio)": "≤ -4.2"}, {"variant": "C35G G70A C87G U109C", "polymerase ribozyme fitness (log ratio)": "≤ -4.2"}, {"variant": "A12U U55A", "polymerase ribozyme fitness (log ratio)": -0.315}, {"variant": "C57G U61A G88A U104G", "polymerase ribozyme fitness (log ratio)": -4.19}, {"variant": "A89U U144C", "polymerase ribozyme fitness (log ratio)": 0.497}, {"variant": "A17U U44A U55G G136A", "polymerase ribozyme fitness (log ratio)": "≤ -4.2"}, {"variant": "G58A A73G C85G A98C", "polymerase ribozyme fitness (log ratio)": -1.02}, {"variant": "C14U C27G C35G A39U U82A G86A A97U", "polymerase ribozyme fitness (log ratio)": "≤ -4.2"}, {"variant": "C14G C75G U77A C87A A137U G143U", "polymerase ribozyme fitness (log ratio)": "≤ -4.2"}, {"variant": "U53A U61A", "polymerase ribozyme fitness (log ratio)": -1.15}]}]}
